Results from patent publication US20090110680A1, “Combination of an anti ED-B fibronectin domain antibody and gemcitabine” (priority 2006, published 2009).

Assays:
[1] = system: Capan-1, human pancreas adenocarcinoma xenografts; assay: Radiotherapy / combination therapy study in mice bearing human pancreatic tumour xenografts; assay type: in vivo; conditions: for survival versus untreated control animals: control (36 days)
Procedure: ED-B-fibronectin domain expression in mouse pancreatic tumour models as well in human pancreatic cancer tissue, pancreatitis and normal pancreas was investigated by immunohistochemical analysis. SPECT (=single photon emission computed tomography) imaging was performed in an orthotopic pancreas cancer mouse model (DAN-G human pancreas carcinoma, DMSZ No. ACC249) with the ^99mTc labelled ED-B-fibronectin domain targeting scFv antibody fragment AP39, described in WO 03/055917. In addition MRI imaging was performed. In radiotherapy studies, mice bearing human pancreatic tumour xenografts (Capan-1, human pancreas adenocarcinoma, ATTC-No. HTB-79) were treated with a single dose of either 37 MBq or 74 MBq of ^131I-labelled ED-B-fibronectin domain targeting L19-SIP (=fusion protein). For combination therapy Capan-1 tumour bearing mice received two cycles of gemcitabine (1 g/m^2/week for three weeks with a one-week break), followed by a single dose of 37 MBq ^131I-L19-SIP 24 h after the first injection of gemcitabine. In a first experiment Capan-1 tumour bearing mice received either a single dose of 37 MBq of ^131I labelled ED-B-fibronectin domain targeting L19-SIP, or two cycles of gemcitabine (1 g/m^2/week for three weeks with a one-week break) as stand alone therapies. For combination therapy mice received two cycles of gemcitabine together with a single dose of 37 MBq ^131I-L19-SIP 24 h after the first injection of gemcitabine. In a second experiment Capan-1 tumour bearing mice were treated with a single dose of either 37 MBq or 74 MBq of ^131I labelled ED-B-fibronectin domain targeting L19-SIP (=fusion protein). For combination therapy Capan-1 tumour bearing mice received two cycles of gemcitabine (1 g/m^2/week for three weeks with a one-week break), together with a single dose of 37 MBq 1311-L19-SIP 24 h after the first injection of gemcitabine.

[2] = target: T1, ED-B domain of fibronectin (Homo sapiens, UniProt P02751); conditions: cited from earlier work
T1 construct: The ED-B, a small domain of 91 amino acids
T1 sequence (P02751 1271-1359 limits assumed): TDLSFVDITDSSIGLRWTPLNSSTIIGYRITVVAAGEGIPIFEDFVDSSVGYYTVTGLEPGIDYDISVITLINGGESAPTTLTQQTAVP

Nc1ccn([C@@H]2O[C@H](CO)[C@@H](O)C2(F)F)c(=O)n1 [gemcitabine, 2′-deoxy-2′,2′-difluorocytidine]
survival versus untreated control animals ([1]; gemcitabine alone, two cycles (1 g/m^2/week for three weeks, one-week break), Capan-1 tumour bearing mice): did not differ from untreated control animals

scFv(L19): human single chain Fv antibody fragment specific for the ED-B domain of fibronectin
binding affinity for ED-B [2]: picomolar

B1: ^131I-L19-SIP (conjugate, chains of the INN, looked up)
VH: EVQLLESGGGLVQPGGSLRLSCAASGFTFSSFSMSWVRQAPGKGLEWVSSISGSSGTTYYADSVKGRFTISRDNSKNTLYLQMNSLRAEDTAVYYCAKPFPYFDYWGQGTLVTVSS
VL: EIVLTQSPGTLSLSPGERATLSCRASQSVSSSFLAWYQQKPGQAPRLLIYYASSRATGIPDRFSGSGSGTDFTLTISRLEPEDFAVYYCQQTGRIPPTFGQGTKVEIK
modifications: small immunoprotein iodine-131 label
survival versus untreated control animals ([1]; 37 MBq ^131I-L19-SIP alone, Capan-1 tumour bearing mice): did not differ from untreated control animals | tumour growth inhibition compared to untreated control tumours ([1]; 37 MBq ^131I-L19-SIP, single dose): did not result in tumour growth inhibition | median survival ([1]; single dose of 74 MBq ^131I-L19-SIP alone, Capan-1 tumour bearing mice, untreated control 32 days): 44 days
